How the values were obtained:
[1] = biological target: MBP-tagged PRG-1 PIWI domain (C. elegans); experiment: MST
[2] = biological target: Recombinant full-length MBP-tagged DEPS-1 (C. elegans) (UniProt Q9N303); experiment: MST
Recombinant full-length MBP-tagged DEPS-1 (C. elegans), sequence (Q9N303 whole entry): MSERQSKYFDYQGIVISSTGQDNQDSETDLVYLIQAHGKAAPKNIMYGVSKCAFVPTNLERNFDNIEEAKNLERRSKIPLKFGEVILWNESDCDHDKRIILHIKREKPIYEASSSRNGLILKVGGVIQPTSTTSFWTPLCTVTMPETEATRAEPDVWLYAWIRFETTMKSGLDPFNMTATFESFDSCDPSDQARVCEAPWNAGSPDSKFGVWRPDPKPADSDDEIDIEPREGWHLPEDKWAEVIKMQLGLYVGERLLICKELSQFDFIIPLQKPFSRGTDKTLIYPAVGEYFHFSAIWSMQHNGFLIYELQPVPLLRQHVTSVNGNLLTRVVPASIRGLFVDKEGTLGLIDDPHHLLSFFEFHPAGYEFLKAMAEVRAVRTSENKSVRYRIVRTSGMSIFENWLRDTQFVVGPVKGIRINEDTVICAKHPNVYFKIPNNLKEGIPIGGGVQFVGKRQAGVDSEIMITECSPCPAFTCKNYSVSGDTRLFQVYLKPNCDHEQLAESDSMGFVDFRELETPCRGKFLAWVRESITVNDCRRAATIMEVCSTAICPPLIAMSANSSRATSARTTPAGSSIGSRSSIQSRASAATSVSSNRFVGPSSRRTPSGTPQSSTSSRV

MBP-tagged DEPS-1 N-terminal fragment (DEPS-1^frag1) (domain or fragment), sequence (Q9N303 whole entry, the tested form may be a part): as the sequence (Q9N303 whole entry) above

MBP-tagged DEPS-1 N-terminal fragment (DEPS-1^frag1) (domain or fragment)
Kd [1]: 151 nM

MBP-tagged PRG-1 PIWI domain (domain or fragment)
Kd [2]: 349 nM
